Laboratory results reported in patent US5686572, “Domains of extracellular region of human platelet derived growth factor receptor polypeptides” (Cor Therapeutics, Inc., dated 1997).

Experiments:
PDGF BB [1] = biological target: T1, PDGF BB (Homo sapiens (Human), UniProt P01127); assay: solid-phase plate assay at 4° C., 125I-PDGF BB on the receptor fragment coated on polystyrene wells, Scatchard analysis
Protocol: (§1) This fraction was then applied to Sephacryl S-200 HR (Pharmacia) equilibrated in 0.15M ammonium bicarbonate pH 7.9. The fractions containing receptor (3–10 ng/μl) were detected by SDS-PAGE and Western blotting with a polyclonal rabbit antibody, made by standard methods, against a Domain 1 (D1) segment from the receptor external region. These fractions (3–10 ng/μl) were used to coat the microtiter wells as described above. The wells were then drained, rinsed once with 200 μl each of 0.5% gelatin (BioRad, EIA grade), 25 mM Hepes, 100 mM NaCl, pH 7.4, and incubated for 1–2 h at 24° C. with 150 μl of this same solution. The wells were drained and rinsed twice with 0.3% gelatin, 25 mM Hepes, 100 mM NaCl, pH 7.4 (150 μl each). […] The bound radioactivity remaining was solubilized from the wells in 200 μl 1% SDS, 0.5% BSA, and counted in a gamma-counter. The nonspecific binding was determined in the presence of a 150-fold excess of unlabeled PDGF BB (Amgen) and was about 7% of the total bound ^125I-PDGF.
(§2) Using iodinated PDGF-BB, the specific binding of less than 10 pg of ligand can be detected in an assay volume of […]. […] The nonspecific binding, determined in the presence of a […] of cold PDGF BB, was usually only about 5–10% of the total binding.

PDGF BB [2] = biological target: T1, PDGF BB; assay: solid-phase plate assay, 125I-PDGF BB bound after 4 h at 4° C., dissociation in buffer
Protocol: as §1, §2

PDGF BB [3] = biological target: T1, PDGF BB; assay: competition: soluble receptor fragment against its immobilized form for binding 125I-PDGF BB
Protocol: as §1, §2

PDGF BB [4] = biological target: T1, PDGF BB; assay: solid-phase plate assay, displacement of bound 125I-PDGF BB by unlabeled PDGF BB
Protocol: as §1, §2

B1: extracellular region fragment of the type B human PDGF receptor (soluble, PΔ1 construct, D1-D2-D3-D4-D5) (receptor)
chain: LVVTPPGPELVLNVSSTFVLTCSGSAPVVWERMSQEPPQEMAKAQDGTFSSVLTLTNLTGLDTGEYFCTHNDSRGLETDERKRLYIFVPDPTVGFLPNDAEELFIFLTEITEITIPCRVTDPQLVVTLHEKKGDVALPVPYDHQRGFSGIFEDRSYICKTTIGDREVDSDAYYVYRLQVSSINVSVNAVQTVVRQGENITLMCIVIGNDVVNFEWTYPRKESGRLVEPVTDFLLDMPYHIRSILHIPSAELEDSGTYTCNVTESVNDHQDEKAINITVVESGYVRLLGEVGTLQFAELHRSRTLQVVFEAYPPPTVLWFKDNRTLGDSSAGEIALSTRNVSETRYVSELTLVRVKVAEAGHYTMRAFHEDAEVQLSFQLQINVPVRVLELSESHPDSGEQTVRCRGRGMPQPNIIWSACRDLKRCPRELPPTLLGNSSEEESQLETNVTYWEEEQEFEVVSTLRLQH
Question: B1 was tested. Which Kd (PDGF BB [1]) did it give?
Answer: The Kd was ~1 nM.

Question: What about the “t1/2 of dissociation in binding buffer” value (PDGF BB [2]) of the same binder?
Answer: The value was > 6 h.

Question: What about the IC50 (PDGF BB [3]) of the same binder?
Answer: Its IC50 is 5 nM.

Question: And the “t1/2 of displacement by 150-fold excess of unlabeled PDGF BB” value (PDGF BB [4])?
Answer: Its value is < 1 h.
